Laboratory results as given in IntAct's records for PubMed 21658387.

Experiments:
akt1_human AKT1 [1] = molecular target: akt1_human AKT1 (UniProt P31749)
mbp_bovin MBP [2] = molecular target: mbp_bovin MBP (UniProt P02687)
akt1_human AKT1 [3] = molecular target: akt1_human AKT1 (UniProt P31749); remark: listed apart in the source
mbp_bovin MBP [4] = molecular target: mbp_bovin MBP (UniProt P02687); remark: listed apart in the source
akt1_human AKT1 [5] = molecular target: akt1_human AKT1 (UniProt P31749); remark: listed apart in the source

akt1_human AKT1, sequence (P31749 whole entry): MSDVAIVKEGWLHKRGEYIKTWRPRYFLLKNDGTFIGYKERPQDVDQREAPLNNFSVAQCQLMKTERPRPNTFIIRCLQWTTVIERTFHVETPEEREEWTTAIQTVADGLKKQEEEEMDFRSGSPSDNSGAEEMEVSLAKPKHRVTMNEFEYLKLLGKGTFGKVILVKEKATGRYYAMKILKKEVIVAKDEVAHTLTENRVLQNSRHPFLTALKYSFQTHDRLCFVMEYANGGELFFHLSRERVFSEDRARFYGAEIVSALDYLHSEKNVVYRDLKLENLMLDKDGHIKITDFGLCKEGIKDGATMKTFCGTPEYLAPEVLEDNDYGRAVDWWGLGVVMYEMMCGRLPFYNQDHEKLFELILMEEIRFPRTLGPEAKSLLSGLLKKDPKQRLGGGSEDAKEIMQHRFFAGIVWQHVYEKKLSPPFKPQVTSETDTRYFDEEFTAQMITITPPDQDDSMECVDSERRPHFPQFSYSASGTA
mbp_bovin MBP, sequence (P02687 whole entry): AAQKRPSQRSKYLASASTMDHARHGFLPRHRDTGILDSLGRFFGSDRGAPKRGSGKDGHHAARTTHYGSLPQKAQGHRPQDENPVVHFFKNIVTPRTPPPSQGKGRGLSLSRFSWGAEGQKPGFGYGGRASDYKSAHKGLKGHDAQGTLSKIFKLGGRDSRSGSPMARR

Leucine-rich repeat serine/threonine-protein kinase 2 (Homo sapiens), Q5S007 R1441C
effect of a mutation on the interaction (akt1_human AKT1 [1]): decreasing interaction

Leucine-rich repeat serine/threonine-protein kinase 2 (Homo sapiens), Q5S007 G2019S
effect of a mutation on the interaction (mbp_bovin MBP [2]): increasing interaction
effect of a mutation on the interaction (akt1_human AKT1 [3]): decreasing interaction

Leucine-rich repeat serine/threonine-protein kinase 2 (Homo sapiens), Q5S007 I2020T
effect of a mutation on the interaction (mbp_bovin MBP [4]): increasing interaction
effect of a mutation on the interaction (akt1_human AKT1 [5]): decreasing interaction
